Consider 4 molecules from US20200040092A1 (YISSUM RESEARCH DEVELOPMENT COMPANY OF THE HEBREW …, published 2020).

The target of assay [1] is T1, human PVR on cells (endogenous on HepG2 and other human tumor cell lines; full-length hPVR overexpressed in B16 cells) (human), P15151.
T1 chain: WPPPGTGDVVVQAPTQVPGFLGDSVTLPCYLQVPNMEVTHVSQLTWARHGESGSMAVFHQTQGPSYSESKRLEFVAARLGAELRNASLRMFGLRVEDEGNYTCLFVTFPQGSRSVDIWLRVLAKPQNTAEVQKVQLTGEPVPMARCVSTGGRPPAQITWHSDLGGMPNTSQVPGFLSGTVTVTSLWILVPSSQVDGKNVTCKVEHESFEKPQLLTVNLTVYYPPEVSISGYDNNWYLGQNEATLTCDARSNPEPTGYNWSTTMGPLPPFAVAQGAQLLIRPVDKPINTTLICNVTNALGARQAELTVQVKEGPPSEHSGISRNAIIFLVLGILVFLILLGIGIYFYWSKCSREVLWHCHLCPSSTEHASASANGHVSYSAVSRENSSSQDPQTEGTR
The assay can be described thus: FACS on B16-hPVR cells, anti-human-IgG APC detection. The note with it: remark: other sources report otherwise.

For assay [2], the target named is T2, hNectin-2 on cells (CHO cells expressing hNectin-2); RPMI-8866 cells overexpressing hNectin-2; human tumor … (human, UniProt Q92692 32-538).
T2 construct: whole, on cells
T2 sequence (looked up): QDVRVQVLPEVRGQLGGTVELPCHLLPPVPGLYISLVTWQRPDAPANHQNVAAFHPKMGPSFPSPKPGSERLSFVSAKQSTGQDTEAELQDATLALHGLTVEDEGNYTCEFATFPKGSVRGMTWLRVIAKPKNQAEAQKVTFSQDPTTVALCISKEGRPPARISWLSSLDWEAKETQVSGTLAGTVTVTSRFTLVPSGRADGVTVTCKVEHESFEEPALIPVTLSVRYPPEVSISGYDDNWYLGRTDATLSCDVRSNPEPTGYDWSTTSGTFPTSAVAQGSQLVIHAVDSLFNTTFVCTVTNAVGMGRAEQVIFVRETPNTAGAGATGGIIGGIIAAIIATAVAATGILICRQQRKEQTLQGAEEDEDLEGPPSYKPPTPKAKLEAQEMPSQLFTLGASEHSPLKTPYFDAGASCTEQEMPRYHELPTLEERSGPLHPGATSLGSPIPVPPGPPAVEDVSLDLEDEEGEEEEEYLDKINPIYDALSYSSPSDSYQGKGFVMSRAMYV
Nature of the assay: FACS on the CHO cells expressing hNectin-2 of FIG. 7C.

The target of assay [3] is T3, human PVR on cells (endogenous on HepG2 and other human tumor cell lines); full-length hPVR overexpressed in … (human, UniProt P15151 21-417).
T3 sequence (looked up): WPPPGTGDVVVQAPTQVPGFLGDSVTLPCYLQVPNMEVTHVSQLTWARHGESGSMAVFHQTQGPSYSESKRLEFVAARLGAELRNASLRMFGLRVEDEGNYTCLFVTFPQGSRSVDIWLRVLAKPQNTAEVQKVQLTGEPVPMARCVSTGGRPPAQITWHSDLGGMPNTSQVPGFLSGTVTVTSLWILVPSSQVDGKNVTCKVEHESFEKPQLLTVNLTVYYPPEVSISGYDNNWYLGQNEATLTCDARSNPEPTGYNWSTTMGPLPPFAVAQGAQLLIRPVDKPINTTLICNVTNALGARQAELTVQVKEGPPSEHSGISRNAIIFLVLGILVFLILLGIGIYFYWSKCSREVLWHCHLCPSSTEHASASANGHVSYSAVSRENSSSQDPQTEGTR
The assay can be described thus: cell-based or functional assay.

For assay [4], the target named is T3, human PVR on cells (endogenous on HepG2 …). The assay can be described thus: cell-based or functional assay. This is another data set of the same source.

B1: Human TIGIT-Fc, Q495A1 22-141 (Fc fusion, UniProt Q495A1 22-141, looked up, not shown: a dimerising Fc or GST)
chain: MMTGTIETTGNISAEKGGSIILQCHLSSTTAQVTQVNWEQQDQLLAICNADLGWHISPSFKDRVAPGPGLGLTLQSLTVNDTGEYFCIYHTYPDGTYTGRIFLEVLESSVAEHGARFQIP
Regarding B1, the fold signal against DNAM-1-Fc in assay [1] was in the range of 2 to 4 fold.

B2: anti-PVR monoclonal antibody 4E5 (antibody, mouse IgG1, V domains shown)
VH: EVKLLESGGGLVQPGGSLKLSCAASGFDFSRYWMTWVRQAPGKGLEWIGEIHPDSSKINYTPSQKDKFIISRDNAKNTLFLQMSKVRFEDTALYFCARPDGNYNALDYWGQGTSVTVSS
VL: DIVMTQSHKFMSTSVGDRVSITCKASQDVGTAVTWYQQKPGQSPKLLIYWASTRHTGVPDRFTGSESGTDFTLTISDVQSEDLANYFCQQYSRYPYTFGGGTKLEIK
notes: also called hPVR.07; PVR.07
Regarding B2, the binding result in assay [2] is “no binding”.

B3: anti-PVR monoclonal antibody 5B9 (antibody, mouse IgG1, V domains shown)
VH: QVQLQQSGAELMKPGASVKISCKATGYTFSNYWIEWIKQRPGHGLEWIGEIFPGSGRINFNEKFKGKATFTADTSSDTTYMQLSSLTSADSAVYYCARTKIYGNSFDYWGQGTTLTVSP
VL: DIMMTQSHKFMSTSVGDRVNITCKASQDVGTAVVWYQQKPGQSPKLLIYWASSRHNGVPDRFTGSGSGTDFTLTISNVQSEDLSDYFCQQYSRYPLTFGAGTKLELK
notes: also called hPVR.09; PVR.09
With B3, the binding result in assay [2] was “no binding”. In assay [3], the “Percentage of dead cells within 24 hrs relative to mIgG treated cells (MTT), A549” value is 25%; the “Percentage of dead cells within 24 hrs relative to mIgG treated cells (MTT), HCT-116” value stood at 22%; the “Percentage of dead cells within 24 hrs relative to mIgG treated cells (MTT), MDA-MB-231” value stood at 20%; the “Percentage of dead cells within 24 hrs relative to mIgG treated cells (MTT), Mel-624” value is 32%.

B4: anti-PVR monoclonal antibody 7D4 (antibody, mouse IgG1, V domains shown)
VH: EVQLQQSGPELVKPGASVKISCKTSGYTFTEYTMHWVKQSHGESLEWIGGIDPNNGGTNYNQNFKGKATLTVDKSSSTAYMELRSLTSEDSAVYYCAGVIPLEYWGQGTSVTVSS
VL: DIVMTQSQKFMSTSVGDRVSVTCKASQNVYTNVAWYQQKPGQSPKALIYSASYRYRGVPDRFTGSGSGTDFTLTISNVQSEDLADYFCQQYNSYPLAFGSGTKLEIK
notes: also called hPVR.01; PVR.01
Turning to B4, in assay [4], the “NK cell killing of the human breast adenocarcinoma cell line MDA-MB-231 ([35S]-Methionine release, specific killing)” value stood at 2 fold. Further, the binding result in assay [2] is “no binding”.
